The values that follow come from the nanobody polyreactivity screen of Harvey et al. (2022).

This series can be described thus: yeast display, Sf9 membrane polyspecificity reagent, FACS + sequencing; frameworks hold sequencing errors. In short, it runs like this:
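After 36–48 hours of galactose induction, yeast (Saccharomyces cerevisiae BJ5465) displaying a synthetic nanobody library were stained at 4 °C for 1 hour with 10% biotinylated, detergent-solubilized Sf9 membrane reagent. Streptavidin microbeads enriched the stained cells before FACS sorting into low and high (top ~1%) gates on anti-HA and streptavidin fluorescence. Each clone's polyreactivity label reflects its gate of origin.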
In the case of “QVQLVESGGGLVQAGGSRRLSCAASGSIFIPYVMGWYRQAPGKERELVAVITSGGDTYYADSVKGRFTISRDNAKNTVYLQMNSLKPEDTAVYYCNATFWYPPWWYEYDYWGQGTQVTVSS”, the “polyreactivity (PSR sort gate)” value was “low polyreactivity”.

Turning to “QVQLVESGGGLVQAGGSRRLSCAASGSIFYYNTMGWSRQAPGKERELVAAMRFDDGSTYYADSVKGRFTISRDNAKYTVYLQMNSLKPEDTAVYYCSADWIVVSEFGLDYHMDYWGQGNQVTVSS”, the “polyreactivity (PSR sort gate)” value was “low polyreactivity”.

For “QVQLVESGGGLVQAGGSRRLSCAASGSTFRANAMGWYRQAPGKERELVAAITSSGGSTYYADSVKGRFTISRDNAKNTVYLQMNSLKPEDTAVYYCAAYPRPYIGYTDGYVWYEFDYWGQGTQVTVSS”, the “polyreactivity (PSR sort gate)” value is “low polyreactivity”.

On to “QVQLVESGGGLVQAGGSRRLSCADSGSIFDQYTMGWSRQAPGKEWELVAGISSGGITNYADSVKGRFTLSRDNAKNTVYLQMTSLKPEDTAVYYCPADNWDLAEYDYWGQGPQVTVSS”, for which the “polyreactivity (PSR sort gate)” value is “low polyreactivity”.

As for “QVQLVESGGGLVQAGGSRRLTCAASGSTFTQYPMGWYRQAPGKERELVAGISWGGSSTYYADSVKGRFTISRDNAKNTVYLEMNSLKPEDSEVYYCASAVWREYGYYFVYWDYSWGQGTQGTVSS”, the “polyreactivity (PSR sort gate)” value is recorded as “low polyreactivity”.

For the sequence “QVQLVESGGGLVQAGGSRSLSCAASGSIFLVNAMGWYRQAPGKERELVAAINSGGSTYYADSVKGRFTISRDNAKNTVYLQMNSLKPEDTAVYYCAADFWLKVWQDTDYDYDYWGQGTQVTVSS”, the “polyreactivity (PSR sort gate)” value was “low polyreactivity”.

For “QVQLVESGGGLVQAGGSVRLSCAASGRTSAWYAMGWYRQAPVKERELVADISGSADSTYYADSVKGRFTISRDNAKYTVYVQMHSLKPEDTAVYYRATSISTPTGDPFDYWGQRTQVTVSS”, the “polyreactivity (PSR sort gate)” value was “low polyreactivity”.

For “QVQLVESGGGLVQAGGSVRLSCAASGSIFGYYALGWYRQAPGTERELVAAISSGGSTKYADSVKGRFTISRDNAKNTVYLQMNSLKPEDTAVYYCATRIRSGSYPYPRYDYWGQGTQVTVSS”, the “polyreactivity (PSR sort gate)” value was “high polyreactivity”.

As to “QVQLVESGGGLVQAGGSVRLSCAASGSTFYHYALGWYRQAPGKERELVAAISWYGGSTYYADSVKGRFTISRDNAKNTVYLQMNSLKPEDTAVYYCAARGRARQRTSFEYWGQGTQVTVSS”, the “polyreactivity (PSR sort gate)” value is listed as “high polyreactivity”.

As to “QVQLVESGGGLVQAGGTLPLSCAASGYTISRNAKGWYRQAPGKARELDAAISRGGRTNYADSVKGRFTISRDNAKNSVYLHLNSLKPEDTAVYYCAANSTTGLRSPRGAGGHDYWGQGTQVTVSS”, the “polyreactivity (PSR sort gate)” value is listed as “high polyreactivity”.

With “QVQLVESGGGLVQAGGTLRISCAASGSTAYVMGWYRQAPGKEMELVAAISKSGGSTYYADSVKGRFTISRDNAKNTVYLQMNSLKPEDTAVYYCAALYPTTTAYRYGYWGQGTQVTVSS”, the “polyreactivity (PSR sort gate)” value is recorded as “high polyreactivity”.

On to “QVQLVESGGGLVQAGGTLRLICAASGFTISKYAMGWYRQAPGKERELVAVISSGGLTNYADSVKGRFTISRDNAKNTVYLQMNSLKPEDSEVYYCAAIGWRTRSRFVYWGQGTQVTVAS”, for which the “polyreactivity (PSR sort gate)” value was “high polyreactivity”.

Consider “QVQLVESGGGLVQAGGTLRLSCAASGFIFGYNAMGWYRQAPGKERELVARINSGGNTNYADSVKGLFSISRDNAKNTVYLLMNSLKPEDTAVYYCARDASNRYDYWRQGTQVTVSS”, for which the “polyreactivity (PSR sort gate)” value is “low polyreactivity”.

Turning to “QVQLVESGGGLVQAGGTLRLSCAASGFIFTRYAMGWYSQAPGKERELVAAIKLSGTSTYYADSVKGRFTISRDNAKYTVYLQMNSLKPEDSAVYYCAATSSYIYPYGYWGQGTQVTVSS”, the “polyreactivity (PSR sort gate)” value is on record as “high polyreactivity”.

Take “QVQLVESGGGLVQAGGTLRLSCAASGFTFGFYAMGWYRQAPGKERELVAAITWSGGSTYYADSVKGRFTISRDNAKNTVYLQMNSLKPEDTAVYYCNAYTYGSEFDYWGQGTQVTVSS”: the “polyreactivity (PSR sort gate)” value is on record as “high polyreactivity”.

On to “QVQLVESGGGLVQAGGTLRLSCAASGFTFTSNAMGWYRQEPGKERELVAAITSSGGITYYADSVKGRFTISRDNAKNTVYLQMNSLKPEDNAVYYCAASISSYNSPGYGYWGQGTQVTVSS”, for which the “polyreactivity (PSR sort gate)” value is recorded as “low polyreactivity”.
